The assay concerns the target T1, GST-hKLHL3 (290–587) (human, UniProt Q9UH77 290-587).
T1 construct: Kelch-like protein 3 (KLHL3), human, residues 290-587; End of the tag read from the construct's name; also called GST-KLHL3 (290–587); GST-KLHL3; source: E. coli BL21, purified (glutathione-Sepharose column, eluted with glutathione); not shown: GST, N-terminal, kept
T1 sequence (looked up): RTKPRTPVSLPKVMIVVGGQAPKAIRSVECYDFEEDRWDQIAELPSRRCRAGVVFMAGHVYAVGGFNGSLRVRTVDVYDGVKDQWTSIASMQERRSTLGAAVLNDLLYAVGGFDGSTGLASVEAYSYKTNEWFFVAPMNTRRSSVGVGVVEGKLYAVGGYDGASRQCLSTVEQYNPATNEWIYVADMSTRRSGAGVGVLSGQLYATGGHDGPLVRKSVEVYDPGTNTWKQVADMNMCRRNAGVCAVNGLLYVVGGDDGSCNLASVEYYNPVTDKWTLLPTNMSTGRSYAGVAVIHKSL
Kind of assay: pull-down; FLAG-tagged synthetic WNK4 (557–580) peptides (1 μg) held on anti-FLAG antibody beads; GST-hKLHL3 (290–587) incubated 6 hours, washed with IP lysis buffer; immunoblot; two amounts of GST-KLHL3 (3-fold apart). The note with it: both partners purified. A general note: Immunoblotting shows a protein as a band on a membrane.

Where no end group is shown, it is not given here. [ ]: non-standard residue; d: D form. pS = N[C@@H](COP(=O)(O)O)C(=O)O

B1: WNK4 (557–580)-pS575 peptide (peptide, UniProt Q96J92 557-580, looked up)
peptide: EPEEPEADQHQPFLFRHA[pS]YSSTT
modifications: also: FLAG tag, position not given here
notes: Held on anti-FLAG antibody beads; also called peptide phosphorylated at Ser575; source: synthetic peptide (bought: Eurofins Genomics)
Take B1: the binding result is reported as “binds”.

B2: WNK4 (557–580)-WT peptide (peptide, UniProt Q96J92 557-580, looked up)
peptide: EPEEPEADQHQPFLFRHASYSSTT
notes: Held on anti-FLAG antibody beads; also called unphosphorylated peptide; source: synthetic peptide (bought: Eurofins Genomics)
On to B2, for which the binding result is “binds”.

The record behind these values is publication PMC4702109, “Osmotic stress induces the phosphorylation of WNK4 Ser575 via the p38MAPK-MK pathway” (Scientific Reports, 2016).
